Assay results from US20240294670A1 (University of Texas, published 2024).

Tests used:
Assay in all cases: anti-His co-IP of rCHI3L1 from Kupffer cell lysate, MS; listed under 'proteins bound to CHI3L1'
Q546G4_MOUSE = biological target: T1, Q546G4_MOUSE (mouse, UniProt Q546G4 25-608)
T1 construct: also called sp|Q546G4|Q546G4_MOUSE
Method: (§1) CHI3L1 interacts with CD44 on KCs. To further understand how CHI3L1 mediates the function of KCs to recruit platelets, the inventors set out to identify its receptor on KCs. They isolated KCs from WT mice treated with APAP for 3 h and incubated the cells with His-tagged rCHI3L1. The cell lysate was subjected to immunoprecipitation using an anti-His antibody. The “pulled down” fraction was subjected to LC/MS analyses. A partial list of proteins identified, including CHI3L1 itself, is shown in (Extended Data Table 1). Because CD44 is a cell membrane protein, the inventors decided to investigate it is a receptor for CHI3L1. They performed/immunoprecipitation experiments using liver homogenates obtained from WT and CD44^{-/-} mice after APAP treatment. […] Moreover, the inventors incubated rhCHI3L1 with human CD44 and then immunoprecipitated with an anti-CD44 antibody. The data confirmed a direct binding between CHI3L1 and CD44 (FIG. 3C). Consistent with the notion that many cell types express CD44, they detected CD44 express on various hepatic non-parenchymal cells (NPCs) except B cells and DCs (summarized in Extended Data Table 2). However, when they incubated liver NPCs with His-tagged rCHI3L1, the inventors observed that the only CD44-expressing cells that could bind to CHI3L1 were KCs (FIG. 3D).

Q3UJ34_MOUSE = biological target: T2, Q3UJ34_MOUSE (mouse, UniProt Q3UJ34 1-412)
T2 construct: also called tr|Q3UJ34|Q3UJ34_MOUSE
T2 sequence: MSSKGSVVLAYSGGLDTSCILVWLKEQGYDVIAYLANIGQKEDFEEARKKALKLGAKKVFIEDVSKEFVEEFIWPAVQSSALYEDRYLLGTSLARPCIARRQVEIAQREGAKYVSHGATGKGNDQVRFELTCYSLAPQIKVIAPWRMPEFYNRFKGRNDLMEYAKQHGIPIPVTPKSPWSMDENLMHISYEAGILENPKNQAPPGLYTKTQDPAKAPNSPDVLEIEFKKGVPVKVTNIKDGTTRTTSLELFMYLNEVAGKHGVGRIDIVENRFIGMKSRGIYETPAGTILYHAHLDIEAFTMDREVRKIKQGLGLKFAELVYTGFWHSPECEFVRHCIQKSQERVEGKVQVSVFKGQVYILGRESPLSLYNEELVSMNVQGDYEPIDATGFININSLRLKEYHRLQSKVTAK
Method: as §1

Q3UA81_MOUSE = biological target: T3, Q3UA81_MOUSE (mouse, UniProt Q3UA81 2-462)
T3 construct: also called tr|Q3UA81|Q3UA81_MOUSE
T3 sequence: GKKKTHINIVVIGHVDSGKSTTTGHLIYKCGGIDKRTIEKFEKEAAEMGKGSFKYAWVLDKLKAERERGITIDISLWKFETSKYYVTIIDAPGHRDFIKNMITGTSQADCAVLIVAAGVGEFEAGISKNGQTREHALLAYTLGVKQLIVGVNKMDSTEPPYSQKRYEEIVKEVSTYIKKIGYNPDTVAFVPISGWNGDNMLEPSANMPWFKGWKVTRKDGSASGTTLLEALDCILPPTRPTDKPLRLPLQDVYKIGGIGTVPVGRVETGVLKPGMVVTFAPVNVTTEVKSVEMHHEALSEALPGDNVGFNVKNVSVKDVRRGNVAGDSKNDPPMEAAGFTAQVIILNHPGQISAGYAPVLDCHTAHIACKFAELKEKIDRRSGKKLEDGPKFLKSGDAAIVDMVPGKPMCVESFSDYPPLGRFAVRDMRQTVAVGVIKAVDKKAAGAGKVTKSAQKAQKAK
Method: as §1

D3Z041_MOUSE = biological target: T4, D3Z041_MOUSE (mouse, UniProt D3Z041 1-699)
T4 construct: also called tr|D3Z041|D3Z041_MOUSE
T4 sequence: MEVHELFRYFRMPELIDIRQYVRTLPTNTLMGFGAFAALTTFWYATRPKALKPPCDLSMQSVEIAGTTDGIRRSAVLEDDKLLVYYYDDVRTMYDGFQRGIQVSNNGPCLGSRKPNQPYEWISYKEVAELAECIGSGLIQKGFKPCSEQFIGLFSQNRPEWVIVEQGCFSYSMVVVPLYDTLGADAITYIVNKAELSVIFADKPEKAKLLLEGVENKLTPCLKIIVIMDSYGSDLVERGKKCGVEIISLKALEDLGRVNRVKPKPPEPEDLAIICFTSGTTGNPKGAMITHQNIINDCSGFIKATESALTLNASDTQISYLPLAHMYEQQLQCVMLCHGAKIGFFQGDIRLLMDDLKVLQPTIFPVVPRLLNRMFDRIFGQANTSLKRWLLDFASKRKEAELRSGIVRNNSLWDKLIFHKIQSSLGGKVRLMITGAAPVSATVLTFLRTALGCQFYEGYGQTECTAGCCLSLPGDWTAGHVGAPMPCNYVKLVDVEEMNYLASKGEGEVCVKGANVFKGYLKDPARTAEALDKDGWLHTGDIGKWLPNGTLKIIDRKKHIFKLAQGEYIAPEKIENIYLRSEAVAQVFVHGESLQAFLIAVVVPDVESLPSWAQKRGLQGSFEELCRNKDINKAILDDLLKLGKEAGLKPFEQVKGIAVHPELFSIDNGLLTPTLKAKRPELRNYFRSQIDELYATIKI
Method: as §1

binding result (Q546G4_MOUSE): binds | binding result (Q3UJ34_MOUSE): binds | binding result (Q3UA81_MOUSE): binds | binding result (D3Z041_MOUSE): binds
B1: recombinant mouse CHI3L1 (ligand)
chain: not shown
notes: His-tagged; also called mCHI3L1; mChi3l1
